What is called koff is the rate constant with which the complex falls apart. Broadly, the kon is the rate constant with which the complex forms. Read a high kon as faster complex formation.

Results on 3 molecules are retold here after patent US6399065 (SCHERING, dated 2002).

B1: SLAM-Ig (SLAM-immunoglobulin fusion protein: entire extracellular domain of human SLAM fused to the Fc portion of human IgG1 heavy chain) (Fc fusion)
chain: ASYGTGGRMMNCPKILRQLGSKVLLPLTYERINKSMNKSIHIVVTMAKSLENSVENKIVSLDPSEAGPPRYLGDRYKFYLENLTLGIRESRKEDEGWYLMTLEKNVSVQRFCLQLRLYEQVSTPEIKVLNKTQENGTCTLILGCTVEKGDHVAYSWSEKAGTHPLNPANSSHLLSLTLGPQHADNIYICTVSNPISNNSQTFSPWPGCRTDPSETKP
notes: Fluorescein conjugated for flow cytometry; also called recombinant SLAM-Ig; soluble form of SLAM (SLAM-Ig); not shown: Fc portion of the human IgG1 heavy chain
B2: human SLAM (SLAM1, encoded by pSURslam1), cell surface (receptor)
chain: RMMNCPKILRQLGSKVLLPLTYERINKSMNKSIHIVVTMAKSLENSVENKIVSLDPSEAGPPRYLGDRYKFYLENLTLGIRESRKEDEGWYLMTLEKNVSVQRFCLQLRLYEQVSTPEIKVLNKTQENGTCTLILGCTVEKGDHVAYSWSEKAGTHPLNPANSSHLLSLTLGPQHADNIYICTVSNPISNNSQTFSPWPGCRTDPSETKPWAVYAGLLGGVIMILIMVVILQLRRRGKTNHYQTTVEKKSLTIYAQVQKPGPLQKKLDSFPAQDPCTTIYVAATEPVPESVQETNSITVYASVTLPES

Data set [1] concerns the target human SLAM (SLAM1, encoded by pSURslam1), cell surface (human) (UniProt Q13291). The experiment in a line: cell-based or functional assay.
Data set [2] concerns the molecule itself. The experiment in a line: SPR (BIACORE), SLAM-Ig immobilized, SLAM-Ig in solution at 100 nM to 1500 nM, 5 µl/min. Here is the method:
(§1) Ab 7D4/SLAM-Ig and SLAM-Ig/SLAM-Ig binding kinetics and affinity were measured. About 8000 resonance units (RUs) of SLAM-Ig were covalently attached to the dextran matrix in the sensor chip via its lysines, according to the manufacturers protocol (BIACORE™ manual, Pharmacia Biosensor). Buffer (phosphate-buffer saline, PBS, pH 7.0) was passed through the flow cell until all of the dissociable protein was removed and the baseline remained stable. Solutions containing various concentrations of the antibody 7D4 in PBS (ranging from 10 nM to 500 nM) were then passed through the flow cell. An increase in mass of protein bound was observed, followed by a decrease when the protein solution was replaced with buffer. A non-linear data analysis protocol, O'Shannessy, et al. (1993) *Anal. Biochem.* 212:457–468, was used to analyze the data to determine the association (k_a) and dissociation (k_d) rate constants. The equilibrium dissociation constant K_d was then calculated from the ratio k_d/k_a.
SLAM-Ig/SLAM-Ig binding kinetics were measured in a similar manner. After immobilization of SLAM-Ig to the chip, solutions of SLAM-Ig at concentrations ranging from 100 nM to 1500 nM were passed through the flow cell at a flow rate of 5 μl/min. From the association and dissociation phases, the corresponding rate constants and thus the equilibrium binding constant were obtained.

Data set [3] concerns the target B2. The experiment in a line: flow cytometry on different SLAM-expressing cell types; reference mAb A12. The text has this:
(§2) The A12 anti-SLAM mAb has been described. Phycoerythrin conjugated CD45RO and CD3 mAbs were purchased from Becton-Dickinson. Cells stained with mAbs, SLAM-Ig or CD40-Ig were washed three times with PBS, 2% FCS and analyzed using a FACScan (Becton-Dickinson).
However, SLAM-Ig did bind to EBV-transformed B-cell lines and CD4^+ T-cell clones, both cell types which we have shown to express SLAM. In no cell types tested did SLAM-Ig bind to cells not expressing SLAM. In addition, the levels of SLAM-Ig binding co-modulated with SLAM expression on CD45RO^+ T cells following activation with anti-CD3. The level of SLAM-IG staining relative to A12 staining on different cell-types was consistent with that observed on L-cell transfectants being 5-fold lower and Ca^++ independent.
In general terms: In flow cytometry, cells or beads pass a laser one at a time.

Data set [4] deals with the molecule itself. Nature of the data set: SPR (BIACORE), SLAM-Ig immobilized, SLAM-Ig in solution; apparent Kd from the rate constants. On the procedure: The equilibrium constants for SLAM/SLAM interactions were analyzed by surface plasmon resonance using a BIACORE™ (Pharmacia) instrument. An anti-SLAM Ab 7D4 was used.
as §1
SLAM-Ig/SLAM-Ig binding kinetics were measured in a similar manner. […]
In general terms: In SPR one partner is held on a chip, and binding of the other changes the refractive index at the surface.

Data set [5] has as its target B2. The experiment in a line: flow cytometry on SLAM/L cells; reference mAb A12. Here is the method:
The binding of SLAM-Ig to SLAM transfectants is specific for the SLAM portion of the molecule and not the Ig, as the staining was performed in the presence of excess IgG in the 30% human serum added. Furthermore, SLAM transfectants were not stained by other Fc containing molecules such as CD40-Ig. The binding of SLAM-Ig was about 5-fold lower than the binding to SLAM/L cells observed using an equivalent concentration of the mAb A12. […] SLAM-Ig binding to transfected cells was not inhibited by EDTA.
as §2

Data set [6] deals with the molecule itself. Nature of the data set: cell-based or functional assay.

Consider “anti-SLAM monoclonal antibody A12 (IgG1)”, for which, in data set [1], the IFN-γ production (pg/ml) by antigen-stimulated T-cell clone Th0/ChT38; no antibody 5207, control Ab 7463 amounted to 20600 pg/mL; the IFN-γ production (pg/ml) by antigen-stimulated T-cell clone Th0/MoT81; no antibody 5423, control Ab 6596 was determined as 18200 pg/mL; the IFN-γ production (pg/ml) by antigen-stimulated T-cell clone Th1/HY06; no antibody 5982, control Ab 5904 was found to be 21900 pg/mL; the IFN-γ production (pg/ml) by antigen-stimulated T-cell clone Th1/TA20; no antibody 8374, control Ab 8070 is 15400 pg/mL. Besides, in data set [1], the IFN-γ production (pg/ml) by antigen-stimulated T-cell clone Th2/MoT72; no antibody 496, control Ab 170 turned out to be 8580 pg/mL; the IFN-γ production (pg/ml) by antigen-stimulated T-cell clone Th2/NP12; no antibody 962, control Ab 902 is 8300 pg/mL; the IFN-γ production (pg/ml) by antigen-stimulated T-cell clone Th2/NP44; no antibody 1073, control Ab 1319 is 7660 pg/mL; the IFN-γ production by Th2 clones, fold upregulation was in the range of 5 to 17 fold. Further, in data set [1], the IL-4 production (pg/ml) by antigen-stimulated T-cell clone Th0/ChT38; no antibody 12907, control Ab 10102 is 15000 pg/mL; the IL-4 production (pg/ml) by antigen-stimulated T-cell clone Th0/MoT81; no antibody 8455, control Ab 8451 was determined as 11100 pg/mL; the IL-4 production (pg/ml) by antigen-stimulated T-cell clone Th1/HY06; no antibody 48, control Ab 40 was 90 pg/mL; the IL-4 production (pg/ml) by antigen-stimulated T-cell clone Th1/TA20; no antibody 62, control Ab 69 amounted to 97 pg/mL. In data set [1], this molecule gave an IL-4 production (pg/ml) by antigen-stimulated T-cell clone Th2/MoT72; no antibody 8805, control Ab 8542 of 16500 pg/mL; an IL-4 production (pg/ml) by antigen-stimulated T-cell clone Th2/NP12; no antibody 6636, control Ab 6486 of 11100 pg/mL; an IL-4 production (pg/ml) by antigen-stimulated T-cell clone Th2/NP44; no antibody 11617, control Ab 11738 of 10400 pg/mL; an anti-CD3 induced T-cell proliferation at optimal anti-CD3, fold increase of 2 to 3 fold.

In data set [2], B1 showed a koff of 0.011 s⁻¹ and an on-rate (kon) of 12000 M⁻¹ s⁻¹. Further, the “fold lower staining relative to A12 staining” value in data set [3] came out at 5 fold. In addition, the Kd in data set [4] amounted to 920 nM. Moreover, the “fold lower binding than an equivalent concentration of mAb A12” value in data set [5] is roughly 5 fold.

On to B2, for which the “proliferation of T cell clone B21 activated with SLAM/L cells, fold enhancement by cyclosporin at 2 µg/ml” value in data set [6] was 2 fold.
